Where two headings read alike, the source gives them in different places.
Key:
[1] = target: T1, human PVRIG-mFc protein (Acro, PVG-H5253) (human, UniProt Q6DKI7 41-171, limits assumed); experiment: HTRF competition, PVRIG-mFc with Bio-CD112-His as competitor
T1 construct: extracellular domain; Bought protein; also called PVRIG-ECD-mFc; not shown: mouse Fc tag of the bought protein
T1 sequence (looked up): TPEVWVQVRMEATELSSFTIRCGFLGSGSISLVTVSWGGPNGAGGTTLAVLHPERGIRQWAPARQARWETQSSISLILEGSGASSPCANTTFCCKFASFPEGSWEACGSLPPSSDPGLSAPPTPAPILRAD
Procedure: PVRIG-mFc (ACRO Biosystems, Cat NO. PVG-H5253) and Bio-CD112-His (Sino Biological, Cat NO. 10005-H08H) were diluted to 0.5 μg/mL, respectively. Streptavidin-Tb cryptate (Cisbio) and PAb anti mouse IgG-XL665 (Cisbio) were diluted to 20 μg/mL and 0.8 μg/mL, respectively. The tested antibodies were diluted from the initial concentration of 120 nM, by 3-fold serial dilution for 12 concentration points. The diluted PVRIG-mFc, Bio-CD112-His, Streptavidin-Tb Crytate and PAb anti mouse IgG-XL665 were mixed at 1:1:1:1, and added into a 384-well plate (PE, Cat NO. 6007299), 10 μL/well. 10 μL/well of serially diluted antibodies was added into wells, centrifuged at 1500 rpm for 30s, and incubated at 37° C. for 1 hour. The plate was read on the microplate reader (PE, Envision2105) with wavelengths of 665 nm and 620 nm. […] A Four Parameter Logistic Fit was performed with the molar concentration of the antibodies as the abscissa and Ratio as the ordinate to calculate IC50. The smaller the IC50, the better the effect of the antibody block the binding of PVRIG to PVRL2. The positive controls in this experiment are COM701-hIgG1, PVRIG-A50-H1b and PVRIG-A105-H1; and the negative control antibody is anti-Fluorescein-hIgG1 (in house). The effect of 4 humanized bispecific antibodies blocking the binding of PVRIG to PVRL2 is shown in FIG. 51 and Tables 44 and 45. […] The blocking effect of LC-BsAb-002 is better than its corresponding monoclonal antibody (PVRIG-A50-H1b) and the positive control (COM701-hIgG1). The blocking effect of LC-BsAb-006 is better than its corresponding monoclonal antibody (PVRIG-A50-H1b), but slightly weaker than the positive control (COM701-hIgG1). The blocking effects of LC-BsAb-009 and LC-BsAb-010 are not as good as their corresponding monoclonal antibodies (PVRIG-A105-H1) and the positive control (COM701-hIgG1).

[2] = target: T2, human PVRIG (AcroBiosystems, Cat NO. PVG-H52H4) (human, UniProt Q6DKI7 41-171, limits assumed); experiment: ELISA, coated human PVRIG
T2 construct: Bought protein with His tag; also called human PVRIG-his; human PVRIG protein
T2 sequence (looked up): T1 sequence (looked up)
Procedure: (§1) The ELISA plate was pre-coated with 50 μL/well of 1.0 μg/mL human PVRIG (AcroBiosystems, Cat NO. PVG-H52H4) or 50 μL/well of 0.5 μg/mL cynomolgus monkey PVRIG (Novoprotein, Cat NO. C09B). The tested antibodies were serially diluted (initial concentration 13 nM, 3-fold serial dilution, 12 concentration points), added into the plate (50 μL/well) and incubated at 37° C. for 2.0 hours. After washing the plate, the Goat anti-human IgG Fc-HRP (Merck, Cat NO. AP113P) working solution (dilution ratio 1:5000, 50 μL/well) were added into wells and incubated at 37° C. for 1.0 hour. A HRP substrate, TMB (KPL, Cat NO. 5120-0077) was added into wells after washing the plate again and incubated at 37° C. for 10 minutes for color development. After adding a termination solution to terminate the reaction, the absorbance value was read by a microplate reader (PE, Ensight-HH3400). An antibody binding curve was drawn with molar concentration of antibodies as the abscissa and the corresponding OD value as the ordinate. The EC50 value was calculated by using a Four Parameter Logistic Fit (GraphPadPrism9). […] The positive control antibodies are COM701-hIgG1, PVRIG-A50-H1b and PVRIG-A105-H1; and the negative control antibodies are anti-Fluorescein-hIgG1 (in house). The binding results of the 4 humanized bispecific antibodies to human PVRIG protein are shown in FIG. 41 and Tables 40 and 41, and the binding results to cynomolgus monkey PVRIG are shown in FIG. 42 and Tables 40 and 41. […] The binding of LC-BsAb-002 and LC-BsAb-006 to human PVRIG protein is slightly weaker than that of the corresponding monoclonal antibody (PVRIG-A50-H1b) and the positive control (COM701-hIgG1).

[3] = target: T1, human PVRIG-mFc protein (Acro, …); experiment: FACS blocking of PVRIG-mFc binding to CHO-K1-CD112 cells; competitor CD112
Method in brief: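 After a further 30 min at 4° C with Zombie violet-stained CHO-K1-CD112 cells, binding was detected with PE goat anti-mouse IgG Fc (1:250) as mean fluorescence intensity on a BD Canto II. IC50 and curve AUC, taken from four-parameter logistic fits in GraphPad Prism, were expressed relative to a reference antibody as percentages.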

[4] = target: T3, cynomolgus monkey PVRIG (Novoprotein, Cat NO. C09B) (cynomolgus monkey, UniProt A0A2K5WVV8 41-171); experiment: ELISA, coated cynomolgus PVRIG
T3 construct: Bought protein; construct not described; also called cynomolgus monkey PVRIG protein
T3 sequence: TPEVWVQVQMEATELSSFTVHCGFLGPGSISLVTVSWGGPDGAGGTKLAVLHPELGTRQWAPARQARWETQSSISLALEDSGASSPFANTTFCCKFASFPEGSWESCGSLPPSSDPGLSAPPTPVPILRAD
Procedure: as §1

human TIGIT ECD-mFc [5] = target: T4, human TIGIT ECD-mFc (human); experiment: ELISA, human TIGIT ECD-mFc captured by anti-mouse IgG
T4 construct: also called human TIGIT protein; fusion protein of extracellular domain of human TIGIT and mouse IgG2a Fc fragment
T4 chain: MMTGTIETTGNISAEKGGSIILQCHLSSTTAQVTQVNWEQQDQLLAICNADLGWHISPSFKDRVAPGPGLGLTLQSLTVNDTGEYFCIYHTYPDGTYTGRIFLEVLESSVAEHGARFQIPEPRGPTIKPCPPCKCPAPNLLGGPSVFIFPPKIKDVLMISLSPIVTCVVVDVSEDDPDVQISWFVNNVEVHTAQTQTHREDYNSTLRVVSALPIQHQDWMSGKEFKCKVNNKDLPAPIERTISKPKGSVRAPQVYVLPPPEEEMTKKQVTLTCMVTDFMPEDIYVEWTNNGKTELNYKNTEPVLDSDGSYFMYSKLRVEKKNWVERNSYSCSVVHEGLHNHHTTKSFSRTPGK
Procedure: (§2) After washing with blocking buffer, the plate was added with 50 μL/well of 30 ng/ml human TIGIT ECD-mFc (in house) or cynomolgus monkey TIGIT ECD-mFc (in house) and incubated at 37° C. for 2.0 hours. After washing the plate, the serial diluted antibodies (initial concentration 13 nM, 3-fold serial dilution, 12 concentration points) were added into the plate (50 μL/well) and incubated at 37° C. for 2.0 hours. After washing the plate, the goat anti-human IgG Fc-HRP (Merck, Cat NO. AP113P)) working solution (dilution ratio 1:5000, 50 μL/well) were added into wells and incubated at 37° C. for 1.0 hour. A HRP substrate, TMB (KPL, Cat NO. 5120-0077) was added into wells after washing the plate again for color development. After adding a termination solution to terminate the reaction, the absorbance value was read by a microplate reader (PE, Ensight-HH3400). An antibody binding curve was drawn with molar concentration of antibodies as the abscissa and the corresponding OD value as the ordinate. The EC50 value was calculated by using a Four Parameter Logistic Fit (GraphPad Prism9). […] The positive control antibodies are RG6058-hIgG1, TIGIT-002-H4L3 and TIGIT-005-H2Lld; and the negative control antibodies are anti-Fluorescein-hIgG1 (in house). The binding results of the 4 humanized bispecific antibodies to human TIGIT protein are shown in FIG. 43 and Tables 42 and 43, and the binding results to cynomolgus monkey TIGIT are shown in FIG. 44 and Tables 42 and 43.

[6] = target: T5, cynomolgus monkey TIGIT ECD-mFc (cynomolgus monkey); experiment: ELISA, cynomolgus TIGIT ECD-mFc captured by anti-mouse IgG
T5 construct: also called cynomolgus monkey TIGIT protein
Procedure: as §2

[7] = target: T5, cynomolgus monkey TIGIT ECD-mFc; experiment: as above; remark: listed apart in the source
Procedure: as §2

human TIGIT ECD-mFc [8] = target: T4, human TIGIT ECD-mFc; experiment: ELISA, human TIGIT ECD-mFc captured by anti-mouse IgG
Procedure: as §2

B1: PVRIG-A50-H1b (Fc fusion)
chain: EVQLVESGGGLVQPGGSLRLSCAASGFTFSYYDMSWVRQAPGKGLEWVSTINSDGGRTSYVDSVKGRFTISRDNSKNTLYLQMNSLRAEDTAVYYCVEGDPHNFGLESLSLRDFGSWGQGTMVTVSS
notes: VHH-human IgG1 Fc format is stated for the parental VHH antibodies; not restated for the humanized variants; also called A50.VH1b; not shown: human IgG1 hinge-CH2-CH3 (Fc)
- % relative activity COM701-hIgG1/tested antibody [1]: 66.7%
- % relative activity PVRIG-A50-H1b/tested antibody [1]: 100%
- IC50 [1]: 0.206 nM
- % relative activity COM701-hIgG1/tested antibody [2]: 65.4%
- % relative activity PVRIG-A50-H1b/tested antibody [2]: 100%
- EC50 [2]: 0.379 nM
- % AUC to COM701-hIgG4 [3]: 104%
- % AUC to SO35-hIgG1 [3]: 61.6%
- % AUC to parental Ab [3]: 85.5%
- % IC50 to COM701-hIgG4 [3]: 95.2%
- % IC50 to SO35-hIgG1 [3]: 73.7%
- % IC50 to parental Ab [3]: 81.4%
- % relative activity COM701-hIgG1/tested antibody [4]: 95.5%
- % relative activity PVRIG-A50-H1b/tested antibody [4]: 100%
- EC50 [4]: 0.038 nM

B2: RG6058-hIgG1 (antibody, V domains shown)
VH: EVQLQQSGPGLVKPSQTLSLTCAISGDSVSSNSAAWNWIRQSPSRGLEWLGKTYYRFKWYSDYAVSVKGRITINPDTSKNQFSLQLNSVTPEDTAVFYCTRESTTYDLLAGPFDYWGQGTLVTVSS
VL: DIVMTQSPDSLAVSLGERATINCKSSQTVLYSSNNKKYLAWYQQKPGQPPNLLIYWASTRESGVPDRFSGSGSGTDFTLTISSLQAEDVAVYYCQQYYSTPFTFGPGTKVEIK
notes: Anti-TIGIT positive control; also called Roche RG6058
- % relative activity RG6058-hIgG1/tested antibody (human TIGIT ECD-mFc [5]): 100%
- % relative activity TIGIT-002-H4L3/tested antibody (human TIGIT ECD-mFc [5]): 74.3%
- EC50 (human TIGIT ECD-mFc [5]): 0.0504 nM
- % relative activity RG6058-hIgG1/tested antibody [6]: 100%
- % relative activity TIGIT-002-H4L3/tested antibody [6]: 90%
- EC50 [6]: 0.0461 nM
- % relative activity RG6058-hIgG1/tested antibody [7]: 100%
- % relative activity TIGIT-005-H2L1d/tested antibody [7]: 96.8%
- EC50 [7]: 0.0461 nM
- % relative activity RG6058-hIgG1/tested antibody (human TIGIT ECD-mFc [8]): 100%
- % relative activity TIGIT-005-H2L1d/tested antibody (human TIGIT ECD-mFc [8]): 85.2%
- EC50 (human TIGIT ECD-mFc [8]): 0.0504 nM

B3: TIGIT-005-H2L1d (antibody, V domains shown)
VH: EVQLVQSGAEVKKPGASVKVSCKASGYAFTNYLIEWVRQAPGQRLEWMGVINPGSGGTNYKEKFKGRVTITADKSSSTAYMELSSLRSEDTAVYYCARGEYFFFDYWGQGTTVTVSS
VL: DIVMTQSPDSLAVSLGERATINCKASQHVSNAVAWYQHKPGQSPKLLIYSASYRYTGVPDRFSGSGSGTDFTLTISSLQAEDVAVYYCQQHYNTPHTFGGGTKVEIK
- % relative activity RG6058-hIgG1/tested antibody [7]: 103%
- % relative activity TIGIT-005-H2L1d/tested antibody [7]: 100%
- EC50 [7]: 0.0446 nM
- % relative activity RG6058-hIgG1/tested antibody (human TIGIT ECD-mFc [8]): 117%
- % relative activity TIGIT-005-H2L1d/tested antibody (human TIGIT ECD-mFc [8]): 100%
- EC50 (human TIGIT ECD-mFc [8]): 0.0429 nM
